Here are results for three molecules from US20030004317A1 (GlaxoSmithKline, published 2003).

Assay [1] concerns the target native cell surface receptor on R-SMC. Briefly: cell-based or functional assay.
The target in assay [2] is T1, human αvβ3 receptor protein purified from human placenta (human, UniProt P06756 31-1048; P05106 27-788).
T1 construct: mature; Detergent-solubilised whole heterodimer from tissue; coated on plates (ELISA), inserted in a hybrid bilayer membrane or passed in solution (BIAcore); also called vitronectin receptor; αβ3 receptor
The assay can be described thus: BIAcore, receptor immobilized in a hybrid bilayer membrane, mAb in solution. On the technique in general: SPR reads the build-up and loss of mass on a sensor chip optically.
Procedure: (§1) The receptors was immobilized by inserting it into a phospholipid vesicle and producing a hybrid bilayer membrane on a hydrophobic sensor surface. […] Samples of the mAb were passed over this surface and the rates at which they bound and then dissociated from the surface were measured and analyzed using software provided with the instrument.

In assay [3] the target is T2, human αvβ5 receptor protein purified from human placenta (human, UniProt P06756 31-1048; P18084 24-799).
T2 construct: mature; Detergent-solubilised whole heterodimer from tissue
Briefly: BIAcore, receptor immobilized in a hybrid bilayer membrane, mAb in solution (100, 25, 6 nM).
Procedure: as §1

Assay [4] concerns the target T1, human αvβ3 receptor protein purified …. The description is as above.
Procedure: as §1

T1 sequence (P06756 31-1048, form in doubt, chain 1 of 2): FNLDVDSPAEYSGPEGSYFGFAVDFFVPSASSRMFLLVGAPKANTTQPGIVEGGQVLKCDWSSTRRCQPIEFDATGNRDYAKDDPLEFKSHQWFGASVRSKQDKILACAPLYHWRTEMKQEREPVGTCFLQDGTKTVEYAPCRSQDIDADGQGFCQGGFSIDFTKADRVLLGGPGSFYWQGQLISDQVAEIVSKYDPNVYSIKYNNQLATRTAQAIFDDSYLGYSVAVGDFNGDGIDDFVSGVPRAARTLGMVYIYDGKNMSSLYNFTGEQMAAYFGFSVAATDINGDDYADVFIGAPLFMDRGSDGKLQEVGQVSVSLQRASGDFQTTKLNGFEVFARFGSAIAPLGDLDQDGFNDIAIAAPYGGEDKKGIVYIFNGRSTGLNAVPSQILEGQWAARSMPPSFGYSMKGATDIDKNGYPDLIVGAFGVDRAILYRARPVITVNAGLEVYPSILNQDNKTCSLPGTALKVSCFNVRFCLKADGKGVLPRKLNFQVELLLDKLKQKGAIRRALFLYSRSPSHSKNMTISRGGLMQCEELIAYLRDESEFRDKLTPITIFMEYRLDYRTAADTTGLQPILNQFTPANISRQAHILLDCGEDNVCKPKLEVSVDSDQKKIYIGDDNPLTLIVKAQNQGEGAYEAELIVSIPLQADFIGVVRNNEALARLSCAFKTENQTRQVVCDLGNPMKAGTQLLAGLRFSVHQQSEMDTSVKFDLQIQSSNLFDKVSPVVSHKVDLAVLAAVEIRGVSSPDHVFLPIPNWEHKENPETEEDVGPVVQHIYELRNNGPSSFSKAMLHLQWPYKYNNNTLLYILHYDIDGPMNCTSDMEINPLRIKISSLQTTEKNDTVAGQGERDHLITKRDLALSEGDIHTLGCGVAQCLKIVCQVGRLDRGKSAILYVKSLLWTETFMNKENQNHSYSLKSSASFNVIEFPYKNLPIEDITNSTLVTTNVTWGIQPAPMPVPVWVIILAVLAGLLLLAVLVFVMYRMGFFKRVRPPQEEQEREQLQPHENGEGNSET
T1 sequence (P05106 27-788, form in doubt, chain 2 of 2): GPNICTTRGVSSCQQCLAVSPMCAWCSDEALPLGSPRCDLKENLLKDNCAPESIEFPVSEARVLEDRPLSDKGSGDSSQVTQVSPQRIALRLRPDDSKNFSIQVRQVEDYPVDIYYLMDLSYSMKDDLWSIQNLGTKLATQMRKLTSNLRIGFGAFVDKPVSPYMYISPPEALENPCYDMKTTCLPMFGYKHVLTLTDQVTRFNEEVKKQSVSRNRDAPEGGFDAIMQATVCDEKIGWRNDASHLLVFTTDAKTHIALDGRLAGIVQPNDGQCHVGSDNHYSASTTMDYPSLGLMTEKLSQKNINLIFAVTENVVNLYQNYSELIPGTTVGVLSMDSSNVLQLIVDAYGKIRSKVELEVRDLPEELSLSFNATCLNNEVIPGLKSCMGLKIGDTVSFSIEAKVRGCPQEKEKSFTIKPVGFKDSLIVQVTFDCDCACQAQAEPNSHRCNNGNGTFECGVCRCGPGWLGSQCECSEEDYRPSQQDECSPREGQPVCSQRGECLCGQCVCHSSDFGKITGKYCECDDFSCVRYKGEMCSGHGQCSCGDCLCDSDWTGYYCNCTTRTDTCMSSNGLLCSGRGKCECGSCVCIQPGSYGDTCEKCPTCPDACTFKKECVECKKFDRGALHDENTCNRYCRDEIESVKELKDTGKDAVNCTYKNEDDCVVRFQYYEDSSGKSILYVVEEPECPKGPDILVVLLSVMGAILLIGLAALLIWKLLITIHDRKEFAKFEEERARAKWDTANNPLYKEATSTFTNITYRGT
T2 sequence (P06756 31-1048, form in doubt, chain 1 of 2): as the sequence (P06756 31-1048, form in doubt, chain 1 of 2) above
T2 sequence (P18084 24-799, form in doubt, chain 2 of 2): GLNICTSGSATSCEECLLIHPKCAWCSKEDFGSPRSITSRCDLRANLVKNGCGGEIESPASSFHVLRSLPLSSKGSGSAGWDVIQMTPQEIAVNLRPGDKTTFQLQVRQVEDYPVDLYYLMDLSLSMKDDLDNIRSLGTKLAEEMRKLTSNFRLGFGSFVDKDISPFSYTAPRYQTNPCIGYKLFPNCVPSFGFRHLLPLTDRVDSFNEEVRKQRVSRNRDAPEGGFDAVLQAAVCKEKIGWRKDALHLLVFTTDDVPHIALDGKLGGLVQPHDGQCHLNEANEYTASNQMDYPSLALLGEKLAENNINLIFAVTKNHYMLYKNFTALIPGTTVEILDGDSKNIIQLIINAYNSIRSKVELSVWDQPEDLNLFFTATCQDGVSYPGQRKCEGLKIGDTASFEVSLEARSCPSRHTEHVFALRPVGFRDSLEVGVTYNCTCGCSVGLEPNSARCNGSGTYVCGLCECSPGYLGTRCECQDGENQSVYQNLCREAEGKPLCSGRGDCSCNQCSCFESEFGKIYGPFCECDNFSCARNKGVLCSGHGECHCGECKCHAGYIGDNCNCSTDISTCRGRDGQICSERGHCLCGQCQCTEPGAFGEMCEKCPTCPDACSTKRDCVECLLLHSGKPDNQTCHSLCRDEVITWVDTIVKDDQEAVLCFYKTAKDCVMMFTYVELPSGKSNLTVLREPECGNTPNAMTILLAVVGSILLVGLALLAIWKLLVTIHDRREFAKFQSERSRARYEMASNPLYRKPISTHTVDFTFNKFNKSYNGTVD

Consider murine monoclonal antibody LM609, for which the Inhib (%) R-SMC (50 µg/ml) in assay [1] worked out at 43%.

B1: murine monoclonal antibody B9 (antibody, mouse IgG1, V domains shown)
VH: QVQLQQSGAELMKPGASVKISCKATGYTFSSYWIEWVKQRPGHGLEWIGEILPRSGNTNYNEKFKGKATFTAETSSNTAYMQLSSLTPEDSAVYYCSSRGVRGSMDYWGQGTSVTVSS
VL: DIQMTQTTSSLSASLGDRVTITCRSSQDISNFLNWYQQKPDGTVKLLIYYTSTLHSGVPSRFSGSGSGTDYSLTISNLEQEDIATYFCQQGNTLPWTFGGGTNLEIKR
notes: also called mAb B9; Murine B9
As to B1, in assay [2], the “fold higher binding affinity (KD) than D12” value was roughly 5 fold. Besides, the Kd – broadly, the constant that tells how readily two partners part at equilibrium – in assay [3] is 0.11 nM; in assay [4], 0.29 nM.

B2: murine monoclonal antibody D12 (antibody, V domains shown)
VH: EIQLQQSGPEVVKPGASVKVSCKASGYAFTSYNMYWVKQSHGKSLEWIGYIDPYNGDTFYNQKFKGKATLTVDKSSSTAYMHLNSLTSEDSAVFYCARQNYGSFAYWGQGTLVTVSA
VL: DIVLTQSPATLSVTPGDSVSLSCRASQSISNHLHWYQQRSHESPRLLIKYASQSISGIPSRFRGSGSGTDFTLNINILETEDFGMYFCQQSNSWPFTFGSGTNLEIKR
Turning to B2, in assay [4], the affinity, expressed as Kd, was 1.3 nM. The molecule further gave an Inhib (%) R-SMC (50 µg/ml) in assay [1] of 66%.
